Source: patent US20220177604A1
Residue numbers refer to the chain shown, from its start.

B1: 13E4-hIgG1-ABDEG (antibody, V domains shown)
VH: ELQLVESGGGLVQPGGSLRLSCAASGFTFSSYVMSWVRQAPGKGLEWVSSIYHDGSHTYYADFVKGRFTISRDNAKNTLYLQMNSLKSEDTAVYYCASGTSYSGSYYYTDPFFGSWGQGTQVTVSS
VL: HSAVTQPSALSVTLGQTAKITCQGGSLGSNYAYWYQQKPGQAPVLVIYDDDSRPSGIPERFSGSSSGGTATLTISGAQAEDEGDYYCQSADSNGNAVFGGGTHLTVL
B2: 18E2His2-hIgG1-ABDEG (antibody, V domains shown)
VH: B1 VH with E1Q, S35H
VL: NFMLTQPSALSVTLGQTARITCQGDRLGSRYIHWYQQKPPQAPVLVIHDDDRRPSGIPERFSGSSSGGTATLTISGAQAEDDGDYYCQSADSSGNPVFGGGTHLTVL
B3: 18E2VLHis-ABDEG (antibody, V domains shown)
VH: B1 VH with E1Q
VL: B2 VL
B4: 18E2VHHis-ABDEG (antibody, V domains shown)
VH: B1 VH with E1Q, S35H
VL: B2 VL with H33Y
B5: CL-2C mAb 1 (antibody, V domains shown)
VH: QVQLVQSGAEVMKPGSSVKVSCKASGYTFSWYWLEWVRQAPGHGLEWMGEIDPGTFTTHYNEKFKARVTFTADTSTSTAYMELSSLRSEDTAVYYCARFSHFSGSHYDYFDYWGQGTLVTVSS
VL: EIVMTQSPATLSVSPGERATLSCRASQHIGTNIHWYQQKPGQAPRLLIYYASESISGIPARFSGSGSGTEFTLTISSLQSEDFAVYYCQQSWSHPTTFGGGTKVEIK
B6: CL-2C mAb 31 (antibody, V domains shown)
VH: B5 VH
VL: B5 VL with H28S
B7: CL-2C mAb 14 (antibody, V domains shown)
VH: B5 VH with W33H, H59N, S105H, H106N
VL: B5 VL with H28S, Y50H
B8: CL-2C mAb 33 (antibody, V domains shown)
VH: B5 VH with W33H, H59N
VL: B5 VL with H28S
B9: CL-2C mAb 39 (antibody, V domains shown)
VH: B5 VH with W33H, H59N, S105H, H106N
VL: B5 VL with H28S, H94W
B10: CL-2C mAb 32 (antibody, V domains shown)
VH: B5 VH with W33H, H59N, H106N, Y107H
VL: B5 VL with H28S
B11: CL-2C mAb 15 (antibody, V domains shown)
VH: B5 VH with H59N, H106N
VL: B5 VL with H28S, Y50H
B12: CL-2C mAb 34 (antibody, V domains shown)
VH: B5 VH with W33H, H59N, S105H, H106N
VL: B5 VL with H28S
B13: CL-2C mAb 28 (antibody, V domains shown)
VH: B5 VH with W33H, H59N
VL: B5 VL with H28S, Y50H, H94W
B14: CL-2C mAb 30 (antibody, V domains shown)
VH: B5 VH with H59N, H106N
VL: B5 VL with H28S, Y50H, H94W
B15: CL-2C mAb 3 (antibody, V domains shown)
VH: B5 VH with W33H, H59N
VL: B5 VL
B16: CL-2C mAb 27 (antibody, V domains shown)
VH: B5 VH with W33H, H59N, H106N, Y107H
VL: B5 VL with H28S, Y50H, H94W
B17: CL-2C mAb 10 (antibody, V domains shown)
VH: B5 VH with H59N, H106N
VL: B5 VL with H28S, Y50H, Q89H, W92D, H94W
B18: CL-2C mAb 36 (antibody, V domains shown)
VH: B5 VH
VL: B5 VL with H28S, H94W
B19: CL-2C mAb 5 (antibody, V domains shown)
VH: B5 VH with H59N, H106N
VL: B5 VL
B20: CL-2C mAb 29 (antibody, V domains shown)
VH: B5 VH with W33H, H59N, S105H, H106N
VL: B5 VL with H28S, Y50H, H94W
B21: CL-2C mAb 18 (antibody, V domains shown)
VH: B5 VH with W33H, H59N
VL: B5 VL with H28S, Y50H, W92D
B22: CL-2C mAb 11 (antibody, V domains shown)
VH: B5 VH
VL: B5 VL with H28S, Y50H
B23: CL-2C mAb 8 (antibody, V domains shown)
VH: B5 VH with W33H, H59N
VL: B5 VL with H28S, Y50H, Q89H, W92D, H94W
B24: CL-2C mAb 20 (antibody, V domains shown)
VH: B5 VH with H59N, H106N
VL: B5 VL with H28S, Y50H, W92D
B25: CL-2C mAb 35 (antibody, V domains shown)
VH: B5 VH with H59N, H106N
VL: B5 VL with H28S
B26: CL-2C mAb 16 (antibody, V domains shown)
VH: B5 VH
VL: B5 VL with H28S, Y50H, W92D
B27: CL-2C mAb 7 (antibody, V domains shown)
VH: B5 VH with W33H, H59N, H106N, Y107H
VL: B5 VL with H28S, Y50H, Q89H, W92D, H94W
B28: CL-2C mAb 2 (antibody, V domains shown)
VH: B5 VH with W33H, H59N, H106N, Y107H
VL: B5 VL
B29: CL-2C mAb 12 (antibody, V domains shown)
VH: B5 VH with W33H, H59N, H106N, Y107H
VL: B5 VL with H28S, Y50H
B30: CL-2C mAb 26 (antibody, V domains shown)
VH: B5 VH
VL: B5 VL with H28S, Y50H, H94W
B31: CL-2C mAb 9 (antibody, V domains shown)
VH: B5 VH with W33H, H59N, S105H, H106N
VL: B5 VL with H28S, Y50H, Q89H, W92D, H94W
B32: CL-2C mAb 38 (antibody, V domains shown)
VH: B5 VH with W33H, H59N
VL: B5 VL with H28S, H94W
B33: CL-2C mAb 13 (antibody, V domains shown)
VH: B5 VH with W33H, H59N
VL: B5 VL with H28S, Y50H
B34: CL-2C mAb 17 (antibody, V domains shown)
VH: B5 VH with W33H, H59N, H106N, Y107H
VL: B5 VL with H28S, Y50H, W92D
B35: CL-2C mAb 19 (antibody, V domains shown)
VH: B5 VH with W33H, H59N, S105H, H106N
VL: B5 VL with H28S, Y50H, W92D
B36: CL-2C mAb 4 (antibody, V domains shown)
VH: B5 VH with W33H, H59N, S105H, H106N
VL: B5 VL
B37: CL-2C mAb 6 (antibody, V domains shown)
VH: B5 VH
VL: B5 VL with H28S, Y50H, Q89H, W92D, H94W
B38: CL-2C mAb 40 (antibody, V domains shown)
VH: B5 VH with H59N, H106N
VL: B5 VL with H28S, H94W

target: human IgE pre-bound on human basophils (human) (UniProt P01854); assay: cell-based or functional assay
Sequence (P01854 whole entry, chain 1 of 2): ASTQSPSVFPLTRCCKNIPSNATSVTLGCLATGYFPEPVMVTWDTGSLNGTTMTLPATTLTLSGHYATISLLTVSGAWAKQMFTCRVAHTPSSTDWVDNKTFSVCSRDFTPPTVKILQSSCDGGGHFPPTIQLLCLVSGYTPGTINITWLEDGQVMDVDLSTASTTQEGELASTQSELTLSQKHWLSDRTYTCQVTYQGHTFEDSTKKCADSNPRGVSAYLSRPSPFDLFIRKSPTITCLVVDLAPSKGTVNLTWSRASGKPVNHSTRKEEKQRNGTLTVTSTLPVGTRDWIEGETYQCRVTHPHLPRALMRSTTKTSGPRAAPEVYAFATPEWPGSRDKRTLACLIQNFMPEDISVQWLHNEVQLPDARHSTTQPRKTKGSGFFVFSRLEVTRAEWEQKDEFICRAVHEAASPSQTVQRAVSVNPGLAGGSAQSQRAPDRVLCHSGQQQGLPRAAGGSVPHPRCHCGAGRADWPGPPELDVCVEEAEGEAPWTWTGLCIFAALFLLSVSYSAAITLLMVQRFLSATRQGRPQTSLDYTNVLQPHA
Sequence (P12319 26-257, chain 2 of 2, further chain): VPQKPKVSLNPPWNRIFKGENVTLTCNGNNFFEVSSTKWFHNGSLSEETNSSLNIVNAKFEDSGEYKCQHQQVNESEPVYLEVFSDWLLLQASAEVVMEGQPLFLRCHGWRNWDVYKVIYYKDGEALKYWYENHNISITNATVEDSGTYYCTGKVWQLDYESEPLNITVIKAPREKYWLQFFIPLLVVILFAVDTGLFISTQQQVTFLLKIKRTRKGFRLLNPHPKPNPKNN

% CD63+ basophils at 20 µg/mL | % CD63+ basophils at 100 µg/mL | % of activated basophils (CCR3+CD63+) | SI (Stimulation Index) at 20 µg/mL | SI (Stimulation Index) at 100 µg/mL | Binder
61.3% | 68.6% | 17% |  |  | B1
4% | 4.3% | 4% |  |  | B2
3.7% | 3.1% |  | 1.48 | 1.24 | B3
3.5% | 4.8% |  | 1.4 | 1.92 | B4

target: human immunoglobulin E (hIgE) (human) (UniProt P01854); assay: SPR competition, hIgE over hFcεRIα chip, pH 7.4
Sequence (P01854 whole entry): as the sequence (P01854 whole entry, chain 1 of 2) above

IC50 | Binder
3 µg/mL | B1
5.8 µg/mL | B2

target: human immunoglobulin E (hIgE) (human) (UniProt P01854); assay: competition ELISA, hIgE to coated hFcεRIα, pH 7.4

IC50 | Binder
0.0065 µg/mL | B1
1.49 µg/mL | B2

target: human immunoglobulin E (hIgE) (human) (UniProt P01854); assay: SPR competition, hIgE over hFcεRIα chip, pH 6 (text: pH 5.5)

IC50 | Binder
3.2 µg/mL | B1
7320 µg/mL | B2

target: human immunoglobulin E (hIgE) (human) (UniProt P01854); assay: flow cytometry: inhibition of human IgE binding to hFcεRIα+ bone-marrow-derived mast cells, residual IgE staining (MFI); table head on the sheet reads EC50, the text calls the values IC50; no unit in the table, x axis in µg/ml

IC50 | Binder
1.36 µg/mL | B1
208 µg/mL | B2

target: recombinant Motavizumab human IgE (rMota-hIgE) (human) (UniProt P01854); assay: hIgE binding ELISA
Sequence (P01854 other isoform, or with tags, fused parts or gaps limits assumed, form in doubt): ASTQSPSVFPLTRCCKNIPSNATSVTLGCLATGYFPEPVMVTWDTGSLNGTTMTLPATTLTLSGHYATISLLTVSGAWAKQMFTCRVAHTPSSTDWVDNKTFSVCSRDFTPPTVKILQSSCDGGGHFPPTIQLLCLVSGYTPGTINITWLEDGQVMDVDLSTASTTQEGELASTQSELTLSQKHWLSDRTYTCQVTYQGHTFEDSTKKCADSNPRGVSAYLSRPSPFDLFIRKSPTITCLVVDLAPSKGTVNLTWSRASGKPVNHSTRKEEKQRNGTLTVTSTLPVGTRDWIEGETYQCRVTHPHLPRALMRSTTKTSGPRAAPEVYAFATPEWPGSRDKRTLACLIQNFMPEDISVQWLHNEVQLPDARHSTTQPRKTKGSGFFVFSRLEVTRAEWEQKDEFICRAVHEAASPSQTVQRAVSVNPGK

Ratio OD450 pH 7.4/pH 6 | Binder
6.94 | B5
10.9 | B6
1.53 | B7
2.61 | B8
7.59 | B9
4.13 | B10
4.07 | B11
5.5 | B12
5.54 | B13
14 | B14
6.44 | B15
19.4 | B16
2.77 | B17
10.7 | B18
0.73 | B19
15.3 | B20
0.97 | B21

Ratio OD450 pH 7.4/pH 6 | Binder
5.9 | B22
1.12 | B23
5.46 | B24
0.69 | B25
2.24 | B26
1.43 | B27
7.11 | B28
1.54 | B29
44.6 | B30
1.45 | B31
4.48 | B32
1.28 | B33
1.03 | B34
1.04 | B35
5.26 | B36
10.2 | B37
1 | B38

target: human immunoglobulin E (hIgE) (human) (UniProt P01854); assay: competition ELISA, hIgE to coated hFcεRIα, pH 6

IC50 | Binder
0.0106 µg/mL | B1
26.6 µg/mL | B2
